From patent US6982082

Target: modified CypA (S99T, F113G, C115M) (CypAgtm), overexpressed in E. coli and purified (UniProt P62937)
Experiment: direct fluorescence binding assay, purified CypAgtm

Q: For “alpha-cyclopentyl, sarcosine11-CsA (CpSar11-CsA) (peptide)”, which Kd is on record?
A: 9 nM
